From paper PMC13184332

T1: His-GFP-KERP2 (Entamoeba histolytica, UniProt C4LZX9 1-239)
T1 sequence: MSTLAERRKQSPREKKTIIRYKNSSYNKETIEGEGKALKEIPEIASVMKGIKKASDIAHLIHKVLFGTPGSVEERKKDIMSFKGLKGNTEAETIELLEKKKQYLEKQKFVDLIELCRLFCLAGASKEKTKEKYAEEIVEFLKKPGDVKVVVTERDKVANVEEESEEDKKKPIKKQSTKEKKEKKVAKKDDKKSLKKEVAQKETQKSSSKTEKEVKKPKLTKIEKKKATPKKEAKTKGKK

T2: His-GFP-KERP2Δ185-239 (Entamoeba histolytica, UniProt C4LZX9 1-184, del185-239)
T2 sequence: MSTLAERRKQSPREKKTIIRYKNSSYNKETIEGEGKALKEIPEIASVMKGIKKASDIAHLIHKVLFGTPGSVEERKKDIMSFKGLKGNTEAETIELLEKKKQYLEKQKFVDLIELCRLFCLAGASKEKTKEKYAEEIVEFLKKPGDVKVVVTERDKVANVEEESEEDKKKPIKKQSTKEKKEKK

B1: dsGC (dsDNA)
DNA 1: CGGGGCGCCGCGGGGCCCCCGGCCCGCCCCGCGGGGCGCCGGGCCCCGCC
DNA 2: GGCGGGGCCCGGCGCCCCGCGGGGCGGGCCGGGGGCCCCGCGGCGCCCCG
B2: dsAT (dsDNA)
DNA 1: TTAATTAAATAAATTAAAAAATTTTTTAATTAAATTAATTAATAAATTAAAATAAATTTTTTAATTAAATTTTAA
DNA 2: TTAAAATTTAATTAAAAAATTTATTTTAATTTATTAATTAATTTAATTAAAAAATTTTTTAATTTATTTAATTAA
B3: ssAT (ssDNA)
DNA: TTAATTAAATAAATTAAAAAATTTTTTAATTAAATTAATTAATAAATTAAAATAAATTTTTTAATTAAATTTTAA

Experiments:
His-GFP-KERP2 = target: T1, His-GFP-KERP2; assay: EMSA
His-GFP-KERP2Δ185-239 = target: T2, His-GFP-KERP2Δ185-239; assay: EMSA

Row | Binder | binding result (His-GFP-KERP2) | binding result (His-GFP-KERP2Δ185-239)
1 | B1 | no binding | no binding
2 | B2 | binds | binds
3 | B3 | binds | binds
